This passage reports amiR-D1 transcript (gene downstream of the UAS) by quantitative PCR in the transgenic alga, after blue light irradiation against before (red light culture) results from PMC5678773.

The target of this test is T1, CIB1 (cryptochrome-interacting basic-helix-loop-helix) fused with the GAL4 DNA-binding domain (Arabidopsis) (UniProt Q8GY61).
T1 sequence: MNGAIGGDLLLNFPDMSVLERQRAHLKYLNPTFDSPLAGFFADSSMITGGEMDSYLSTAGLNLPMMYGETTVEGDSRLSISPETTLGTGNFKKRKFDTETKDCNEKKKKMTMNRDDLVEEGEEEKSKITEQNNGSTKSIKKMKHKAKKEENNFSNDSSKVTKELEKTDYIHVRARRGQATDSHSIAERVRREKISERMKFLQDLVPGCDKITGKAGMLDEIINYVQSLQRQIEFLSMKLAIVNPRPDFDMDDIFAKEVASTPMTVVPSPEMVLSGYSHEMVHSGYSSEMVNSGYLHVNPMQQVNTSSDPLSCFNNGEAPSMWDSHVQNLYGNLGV

For the substance “CRY2 (cryptochrome 2) fused with the VP16 transcription activation domain (from UniProt Q96524 1-612) (natural protein)”, the amiR-D1 transcript (gene downstream of the UAS) by quantitative PCR in the transgenic alga, after blue light irradiation against before (red light culture) is over 14 fold.
